Results on one substance are retold here after patent US20250340602A1.

The assay addresses Gal80p (Saccharomyces cerevisiae) (UniProt P04387). Kind of assay: cell-based or functional assay.
UniProt P04387, sequence (P04387 whole entry): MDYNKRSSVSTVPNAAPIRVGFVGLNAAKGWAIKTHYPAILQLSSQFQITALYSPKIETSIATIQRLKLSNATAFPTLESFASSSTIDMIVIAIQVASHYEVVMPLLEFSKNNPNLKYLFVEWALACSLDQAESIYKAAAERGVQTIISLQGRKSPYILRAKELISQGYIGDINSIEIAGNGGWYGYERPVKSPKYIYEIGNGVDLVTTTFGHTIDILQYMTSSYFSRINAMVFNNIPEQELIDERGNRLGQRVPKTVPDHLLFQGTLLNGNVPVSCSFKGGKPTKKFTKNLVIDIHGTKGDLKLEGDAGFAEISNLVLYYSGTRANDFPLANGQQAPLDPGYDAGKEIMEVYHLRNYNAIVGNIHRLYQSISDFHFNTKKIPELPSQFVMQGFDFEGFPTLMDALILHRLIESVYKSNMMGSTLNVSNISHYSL

In turn, “Gal3p^MC (metabolic coordinator) (from UniProt P13045 1-520)” yielded a GAL1p-EGFP fluorescence during growth on galactose in strain SFS6 of more than 5 fold.
